# T1: recombinant TR protein (extracellular domain of TR, amino acids 1-302, C-terminal 6xHis tag) (human) (UniProt Q9UIK5)
# T1 sequence (chain, glycosylated): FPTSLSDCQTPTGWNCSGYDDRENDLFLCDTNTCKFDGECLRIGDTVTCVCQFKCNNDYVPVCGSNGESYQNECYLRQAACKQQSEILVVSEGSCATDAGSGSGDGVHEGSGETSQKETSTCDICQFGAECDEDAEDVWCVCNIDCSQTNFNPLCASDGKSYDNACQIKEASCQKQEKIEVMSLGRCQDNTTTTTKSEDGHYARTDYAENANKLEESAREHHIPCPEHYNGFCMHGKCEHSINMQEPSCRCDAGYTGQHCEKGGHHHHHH
# T2: native tomoregulin (TR) on TR-expressing cells (PC3-TR, CHO-TR) (human) (UniProt Q9UIK5)
# T2 sequence (looked up): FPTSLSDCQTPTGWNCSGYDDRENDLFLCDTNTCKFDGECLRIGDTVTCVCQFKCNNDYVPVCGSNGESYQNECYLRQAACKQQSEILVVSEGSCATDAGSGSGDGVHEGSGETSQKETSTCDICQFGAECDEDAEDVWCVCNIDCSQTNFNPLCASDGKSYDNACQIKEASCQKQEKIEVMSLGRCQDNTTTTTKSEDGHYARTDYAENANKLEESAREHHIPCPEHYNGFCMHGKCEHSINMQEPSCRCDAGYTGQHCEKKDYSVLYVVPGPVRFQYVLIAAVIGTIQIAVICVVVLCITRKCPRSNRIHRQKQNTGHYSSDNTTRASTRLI
# T3: recombinant TR protein (extracellular domain of TR, amino acids 1-302, C-terminal 6xHis tag) (human, UniProt Q9UIK5 41-302, glycosylated)
# T3 construct: range 41-302; Secreted from baculovirus-infected High Five cells, purified by Ni chelate and size exclusion chromatography; also called 6×his-tagged recombinant TR; recombinant protein
# T3 sequence: T1 sequence (chain, glycosylated)
# T4: native tomoregulin (TR) on TR-expressing cells (PC3-TR, CHO-TR) (human, UniProt Q9UIK5 41-374)
# T4 construct: whole, on cells; also called native TR; native receptor
# T4 sequence (looked up): T2 sequence (looked up)
# B1: AT-19 scFv immune complex (AT-19 scFv dimerized by pre-incubation with mouse anti-E-tag monoclonal IgG) (protein, part only; not given: E-tag and anti-E-tag IgG, not shown: small tags and cut ends)
# scFv, part: QVQLVQSGGGLVQPGGSLRLSCAASGFTFSNYAMSWVRQAPGKGLEWVSAISGNGGATYYADSMKGRFTISRDNSKNTLSLQLNSLRVEDTAVYYCAKSLIWGYDRGVDYWGQGTLVTVSAGGGGSGGGGSGGGGSGAPHVILTQPPSASGTPGQRVTISCSGGASNIGTNSVNWYQQLPGTAPKLLLYTNDHRPSGVPDRFSGKSGTSASLAISGLQAEDEGDYYCAAWDDTMNGHVVFGGGTKLTVLG
# B2: AT-19 scFv (monomeric, monovalent single-chain anti-TR antibody) (scFv)
# scFv: B1 scFv, part
# notes: also called monovalent AT-19 scFv; monomeric AT-19 scFv; not shown: E-tag from the pZ603 (pCANTAB5E-based) vector
# B3: AT-19 IgG (fully human IgG1 format of AT-19) (antibody, V domains shown)
# VH: QVQLVQSGGGLVQPGGSLRLSCAASGFTFSNYAMSWVRQAPGKGLEWVSAISGNGGATYYADSMKGRFTISRDNSKNTLSLQLNSLRVEDTAVYYCAKSLIWGYDRGVDYWGQGTLVTVSA
# VL: HVILTQPPSASGTPGQRVTISCSGGASNIGTNSVNWYQQLPGTAPKLLLYTNDHRPSGVPDRFSGKSGTSASLAISGLQAEDEGDYYCAAWDDTMNGHVVFGGGTKLTVLG
# notes: also called fully human AT-19 IgG
# Columns and labels:
# [1] = target: T1, recombinant TR protein (extracellular domain of TR, amino acids 1-302, C-terminal 6xHis tag) (human); test: ICELISA on recombinant TR, scFv pre-incubated with anti-E-tag antibody; based on total scFv
# [2] = target: T1, recombinant TR protein (extracellular domain of TR, amino acids 1-302, C-terminal 6xHis tag) (human); test: ICELISA against direct ELISA on recombinant TR
# [3] = target: T2, native tomoregulin (TR) on TR-expressing cells (PC3-TR, CHO-TR) (human); test: live cell ICELISA on PC3-TR cells; based on total scFv concentration
# [4] = target: T3, recombinant TR protein (extracellular …); test: direct ELISA on recombinant TR, monomeric scFv
# [5] = target: T4, native tomoregulin (TR) on …; test: live cell ELISA on PC3-TR cells
# [6] = target: T4, native tomoregulin (TR) on …; test: FACS on PC3-TR cells, IgG against scFv monomer; not exactly quantified
# Experimental: (§1) Cells were detached with Cell Dissociation Buffer (GIBCO Invitrogen, Carlsbad, Calif.) and collected by centrifugation of 3000 rpm at 4° C. for 5 min. 2×10⁵ cells in 100 μl PBS buffer were incubated for 1 h at 4° C. with anti-TR antibodies at a range of concentrations. Excess antibody was washed away with 1 ml PBS followed by centrifugation, and cells were resuspended and incubated for 45 min at 4° C. in PBS 100 μl containing anti-mouse IgG-FITC (10 μg/mL, Vector Labs Inc.) as the second antibody. Excess antibody was washed away with 1 mL PBS and by centrifugation. Cells were resuspended in 200 μL PBS containing 5 μL propidium iodide (1 μg/ml). Fluorescence intensity was measured on a FACS Calibur (Becton Dickinson). Experiments were performed in triplicate.
# (§2) Binding of AT-19 IgG to PC3 cells expressing TR was compared to mouse anti-TR IgG 2H8 by FACS. 2H8 is a murine IgG1 monoclonal antibody that reacts with the follistatin domains of the extra-cellular region of human TR protein (Afar et al., Mol. Cancer Ther., 3:921, 2004). It is used throughout as a positive control antibody.
# [7] = target: T4, native tomoregulin (TR) on …; test: FACS on PC3-TR cells
# Experimental: as §1, §2
binder,measurement,setting,value
B1,EC50,[1],1.3 nM
same,fold improvement of EC50 against monomeric AT-19 scFv,[2],> 20 fold
same,EC50,[3],8.5 nM
B2,EC50,[4],22 nM
B3,EC50,[5],0.44 nM
same,avidity effect (fold) against the scFv monomer,[6],> 20 fold
same,EC50,[7],0.17 nM

# From patent publication US20060292074A1 (SCHERING AKTIENGESELLSCHAFT, published 2006)
